Measured values as given in patent US20250034594A1, “RNA-GUIDED GENOME RECOMBINEERING AT KILOBASE SCALE” (THE BOARD OF TRUSTEES OF THE LELAND STANFORD JUNIOR …, priority 2021, published 2025).

B1: SSAP_102: SEQ ID NO: 271; Halomonas coralii (protein, listed as Halomonas coralii)
chain: TDQATAEPQEDLGKQLQQHSQRKPMPTTIQGMLKDDRFTGQIARALPKHITPDRISRIALTEVNKTPALGKCDPMSLFGSIIQSAQLGLELGGALGHAYLVPYKDQAQFIIGYRGMIDLARRSGQMVSLQAHTVHENDDFEFEYGLDEKLRHVPARGQRGPMIAVYAVAKLTGGGHQIEVMWKEDVDAIRQQSKAGNSGPWRDHYEEMAKKTAIRRLFKYLPVSVEMQKAVSLDEQAEAGVQDNNVFDGEFSYQEPE
B2: SSAP_22: SEQ ID NO: 191 (protein)
chain: SNELMTKAVTYEVNNEEVKLSGQIVKQYLTSGQAVTDQEVTMFIQLCRYQHLNPFLNEAYLVKFNGKPAQIITSKEAFMKRAESNPNYAGLKAGCIVERNGELIYTEGAFTLKTDNILGAWADVIRKDRREPTHVEISMDEFSKSQATWKSMPATMIRKTAIVNALREAFPQDLGALYTEDDKNPNEATQTTYKQEPEVNTTKTADVLAKKFSGAPQIKSVENVQESEEESNNASNHGEATEPVNNVEEPTATAEVEQGQLL
B3: SSAP_5: SEQ ID NO: 174 (protein)
chain: ANELGIFSVDNLNMTTIKQYLDGGGKASDAELVLLINLCKQNNMNPFMKEVYFIKYGNQPAQIVVSRDFYRKRAFQNPNFVGIEVGVIVLNKDGVLEHNEGTFKTHEQELVGAWARVHLKNTEIPVYVAVSYDEYVQMKDGHPNKMWTNKPCTMLGKVAESQALRMAFPAEFSGTYGEEEYPEPEKEPREVNGVKEPDRAQIESFDKEDYAAKKIEELKEKAQPQKEVVEETGEVIDEEPLEGF
B4: SSAP_252: SEQ ID NO: 421; Bacteroides pyogenes DSM 20611 = JCM 6294 (protein)
chain: QVADPQSVLNSAVIAATLDLPINPNLGFAAIVPYNDRKSGKCIAQFQLMYKGLVELCLRSGQFASLIDEVVYEGQIVKKNKFTGEYIFDEDAKTSNKVIGYMAYFRLVNGFEKTFYMTSEEVTAHAKAYSQSFKSGYGVWKDNFDIMARKTVLKLLLSKYAPKSIEMQRAITFDQAAVKGDLTETNVDEAEIEYIDNESGSDKIKQAAEDAVIQSQQKTLL
modifications: Bacteroides pyogenes
B5: SSAP_178: SEQ ID NO: 347; Streptomyces sp. MZ04 (protein, listed as Streptomyces sp.)
chain: STNLAARVEARRQNPTTKQPARRGKAAQQPTLVQFVQSMRGEIARALPSHVASPERIARIALTELRRVDHLAECTQESFGGALMTCAALGLEPGGVGGEAYLLPFWNKKVRAYEVTLVIGYQGMVRLFWQHPAAAGLAAHTVHEGDEFDFEYGLEPFLRHKPARTGRGKPTDYYAVAKMANGGSAFVVMNVEDIEAIRHRSKARDAGPWSTDYGLRRHGAQDLHSAVVQVAAEVC

Experiments:
Format in all cases: cell-based
[1] = system: gene editing with Cas9; experiment: Screen of 322 new SSAP proteins, gene editing activity with Cas9 (Table 5); design: Cas9 with SSAP activity: scale not given here
Outline: (§1)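 Sequence-mined SSAPs (n=322), synthesized; editing activity screened with Cas9 or dCas9.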

[2] = system: gene editing with dCas9; experiment: Screen of 322 new SSAP proteins, gene editing activity with dCas9 (Table 5); design: dCas9 with SSAP activity: scale not given here
Outline: as §1

[3] = system: gene editing with Cas9 and dCas9; experiment: Screen of 322 new SSAP proteins, activity across all experiments (Cas9 and dCas9, Table 5); design: scale not given here
Outline: as §1

Molecule	Cas9 with SSAP activity [1]	Cas9 with SSAP activity (normalized) [1]	dCas9 with SSAP activity [2]	dCas9 with SSAP activity (normalized) [2]	Activity across all experiments [3]
B1	−0.118	−0.065	−0.784	−0.325	−0.451
B2	1.789	4.337	−0.792	−0.867	0.498
B3	−0.026	−0.032	−0.854	−0.392	−0.440
B4	−0.275	−0.560	−0.876	−0.635	−0.575
B5	−1.057	−0.929	−0.807	−0.626	−0.932
